The values below come from US20200276326A1.

Assay [1] addresses human CD5 on cells (MOLT-4 human T lymphoblast cells; primary human T-cells) (human) (UniProt P06127). The assay is described as follows: flow cytometry on MOLT-4 cells, anti-mouse AF488 secondary, 4 C. In general terms: A flow cytometer gives signals particle by particle.
Assay [2] has as its target purified human CD5 ectodomain (human) (UniProt P06127). Description: BLI (Octet Red96), antibody on anti-human Fc biosensors, 50 nM CD5 ectodomain, 25 C. For orientation: In BLI a coated tip is dipped into the sample, and binding shifts an interference pattern.
In assay [3] the target is human CD5 on cells (MOLT-4 human T lymphoblast cells; primary human T-cells) (human) (UniProt P06127). The assay is described as follows: flow cytometry on primary human T-cells, AF488 secondary, antibody titration at 37 C.

One may read the EC50 as the midpoint of the concentration-response curve. Low readings indicate higher potency in that assay, high ones lower potency in that assay. As a reminder, the Kd is the free concentration of one partner at which half of the binding sites on the other are occupied at equilibrium, for simple one-to-one binding. Read a high Kd as weaker binding. Usually koff stands for the rate constant with which the complex falls apart. The low end stands for a long-lived complex, the high end for a short-lived complex. As usually defined, the kon is a measure of how fast the partners come together. A lower kon goes with slow association.

In assay [1], “murine anti-CD5 antibody CRIS-1 (Novus Biologicals)” registered a half-maximal effective concentration (EC50) of 0.043 nM.
In the case of “murine anti-CD5 antibody UCHT2 (BioLegend)”, the EC50 in assay [1] turned out to be 0.354 nM.

B1: anti-CD5 antibody 5D7 hIgG1 (humanized version of murine antibody 5D7) (antibody, V domains shown)
VH: QVTLKESGPVLVKPTETLTLTCTFSGFSLSTSGMGVGWIRQAPGKGLEWVAHIWWDDDVYYNPSLKSRLTITKDASKDQVSLKLSSVTAADTAVYYCVRRRATGTGFDYWGQGTLVTVSS
VL: NIVMTQSPSSLSASVGDRVTITCQASQDVGTAVAWYQQKPDQSPKLLIYWTSTRHTGVPDRFTGSGSGTDFTLTISSLQPEDIATYFCHQYNSYNTFGSGTKLEIK
As for B1, in assay [2], the equilibrium dissociation constant (Kd) amounted to 0.141 nM, the Response came out at 0.67 nm, the dissociation rate constant (koff) is 3.36e-05 s⁻¹ and the kon was 239000 M⁻¹ s⁻¹. In assay [3], this molecule gave a 50% effective concentration (EC50) of 0.003 nM.
